Results reported in patent US20200157542, “Bispecific Aptamer for Treating Cancer” (Augusta University Research Institute, Inc., published 2020).

Columns and labels:
EpCAM = target: T1, EpCAM (human, UniProt P16422 P16422:24-265); assay: ELONA; bridging of 1 uM free EpCAM to plate-immobilized CD44; simple mixture of the two aptamers gave background only; details: tags: Thermo Fisher Scientific; label: 3'-Cy5 on EpCAM strand for flow cytometry; two aptamers joined by 23 bp dsRNA adaptor with 2-3 unpaired base linkers
T1 sequence: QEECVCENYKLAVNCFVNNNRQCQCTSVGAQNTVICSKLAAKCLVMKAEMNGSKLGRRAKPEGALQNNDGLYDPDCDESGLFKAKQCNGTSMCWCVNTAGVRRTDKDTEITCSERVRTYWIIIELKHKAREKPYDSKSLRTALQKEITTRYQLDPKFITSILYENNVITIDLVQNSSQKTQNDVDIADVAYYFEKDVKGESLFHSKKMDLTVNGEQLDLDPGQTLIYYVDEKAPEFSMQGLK
Description: Serially diluted recombinant human CD44 protein (0-500 nM) was loaded into 96-well microtiter plates at 50 μg/well in triplicates and incubated overnight at 4° C. Plates were further blocked with 5% BSA/sperm DNA (500 μg/ml)/yeast tRNA (500 μg/ml)/0.05% Tween-20 in PBS/T buffer overnight. CD44-EpCAM conjugates or simply mixed CD44 and EpCAM aptamers were incubated with 1 μM recombinant human EpCAM for 4 h at room temperature. For simply mixed CD44 and EpCAM, prior putting CD44 and EpCAM aptamers together, CD44 aptamer was blocked with ssDNA (5′-[…]-3′) (SEQ ID NO: 11). […] Detection of HRP was performed by incubating with 100 µL/well soluble Turbo TMB-ELISA substrate for 5 min, then reaction was quenched with 100 μl/well Stop solution and the absorbance at 450 nm was measured using TECAN Infinite M 200 plate reader.
The binding of bispecific CD44-EpCAM aptamer was examined by ELISA (FIG. 1B). […] As expected (FIG. 1C), CD44-EpCAM bispecific aptamers successfully linked to plate-immobilized CD44 protein and free EpCAM proteins, yielding CD44 protein concentration-dependent positive signals, whereas only the background signal was detected in a control experiment with a simple mixture of CD44 aptamer and EpCAM aptamer. […]

[1] = target: human serum albumin (HSA) (human, UniProt P02768 P02768:25-609); assay: ELONA; immobilized HSA control, no positive signal; details: label: 3'-Cy5 on EpCAM strand for flow cytometry; two aptamers joined by 23 bp dsRNA adaptor with 2-3 unpaired base linkers
human serum albumin (HSA), sequence (P02768 25-609, one chain of several): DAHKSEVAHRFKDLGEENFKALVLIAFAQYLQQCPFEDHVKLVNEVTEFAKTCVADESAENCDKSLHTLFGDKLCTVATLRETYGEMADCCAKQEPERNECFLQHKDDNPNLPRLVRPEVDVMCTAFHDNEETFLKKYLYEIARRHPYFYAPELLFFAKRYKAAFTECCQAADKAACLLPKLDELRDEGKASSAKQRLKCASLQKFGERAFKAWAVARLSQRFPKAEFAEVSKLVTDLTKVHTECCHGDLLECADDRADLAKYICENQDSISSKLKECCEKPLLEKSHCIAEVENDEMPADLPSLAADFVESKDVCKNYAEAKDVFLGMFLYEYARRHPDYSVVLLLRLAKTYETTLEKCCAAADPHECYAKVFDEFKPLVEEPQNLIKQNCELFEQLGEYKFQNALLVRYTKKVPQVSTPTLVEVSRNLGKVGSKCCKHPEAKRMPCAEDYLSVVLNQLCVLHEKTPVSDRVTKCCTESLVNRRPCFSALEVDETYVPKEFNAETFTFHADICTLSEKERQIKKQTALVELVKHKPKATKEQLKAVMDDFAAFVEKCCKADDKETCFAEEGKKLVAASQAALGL

B1: CD44-EpCAM bispecific aptamer (ssRNA)
RNA 1: GGGAUGGAUCCAAGCUUACUGGCAUCUGGAUUUGCGCGUGCCAGAAUAAAGAGUAUAACGUGUGAAUGGGAAGCUUCGAUAGGAAUUCGGAAAAGCUUGUUCAGGAGAUGAAAUU
RNA 2: GCGACUGGUUACCCGGUCGUAAAAUUUCAUCUCCUGAACAAGCUU
modifications: RNA (U for T in printed DNA template), 2'-F pyrimidines throughout
Q: Does B1 bind (EpCAM)?
A: binds

Q: Does B1 bind [1]?
A: no binding
